Assay results published in patent US6794168B1, “Process for oxidising aromatic compounds” (Isis Innovation Limited, priority 1999, dated 2004).
Residue numbers refer to the chain shown, from its start. Names may count otherwise.

B1: F87A-Y96F: P450cam mutant (with C334A) (protein, UniProt P00183 2-415, looked up, variant F87A Y96F C334A)
Camphor 5-monooxygenase: TTETIQSNANLAPLPPHVPEHLVFDFDMYNPSNLSAGVQEAWAVLQESNVPDLVWTRCNGGHWIATRGQLIREAYEDYRHFSSECPAIPREAGEAFDFIPTSMDPPEQRQFRALANQVVGMPVVDKLENRIQELACSLIESLRPQGQCNFTEDYAEPFPIRIFMLLAGLPEEDIPHLKYLTDQMTRPDGSMTFAEAKEALYDYLIPIIEQRRQKPGTDAISIVANGQVNGRPITSDEAKRMCGLLLVGGLDTVVNFLSFSMEFLAKSPEHRQELIERPERIPAACEELLRRFSLVADGRILTSDYEFHGVQLKKGDQILLPQMLSGLDERENAAPMHVDFSRQKVSHTTFGHGSHLCLGQHLARREIIVTLKEWLTRIPDFSIAPGAQIQHKSGIVSGVQALPLVWDPATTKAV
B2: Y96H: P450cam mutant (with C334A) (protein, UniProt P00183 2-415, looked up, variant Y96H C334A)
Camphor 5-monooxygenase: B1 Camphor 5-monooxygenase with A87F, F96H
B3: F87L-Y96F: P450cam mutant (with C334A) (protein, UniProt P00183 2-415, looked up, variant F87L Y96F C334A)
Camphor 5-monooxygenase: B1 Camphor 5-monooxygenase with A87L
B4: F87A-Y96F-V247A: P450cam mutant (with C334A) (protein, UniProt P00183 2-415, looked up, variant F87A Y96F V247A C334A)
Camphor 5-monooxygenase: B1 Camphor 5-monooxygenase with V247A
B5: Y96F: P450cam mutant (with C334A) (protein, UniProt P00183 2-415, looked up, variant Y96F C334A)
Camphor 5-monooxygenase: B1 Camphor 5-monooxygenase with A87F
B6: Y96A: P450cam mutant (with C334A) (protein, UniProt P00183 2-415, looked up, variant Y96A C334A)
Camphor 5-monooxygenase: B1 Camphor 5-monooxygenase with A87F, F96A
B7: Y96A-V247L: P450cam mutant (with C334A) (protein, UniProt P00183 2-415, looked up, variant Y96A V247L C334A)
Camphor 5-monooxygenase: B1 Camphor 5-monooxygenase with A87F, F96A, V247L
B8: C334A: P450cam with only the base mutation C334A (protein, UniProt P00183 2-415, looked up, variant C334A)
Camphor 5-monooxygenase: B1 Camphor 5-monooxygenase with A87F, F96Y
B9: Y96L-V247A: P450cam mutant (with C334A) (protein, UniProt P00183 2-415, looked up, variant Y96L V247A C334A)
Camphor 5-monooxygenase: B1 Camphor 5-monooxygenase with A87F, F96L, V247A

tested on: not listed separately; test: Oxidation of halo aromatic compounds by P450cam mutants in vitro, trichlorophenol products; type: biochemical; settings: (nmol product)(nmol P450cam)^−1(min)^−1; trichlorophenol products
Method: (§1) 50 mM Tris-HCl buffer pH 7.4 is added to make up the volume.
(§2) Temperature controlled at 30° C., optional.
(§3) The NADH turnover rate could be determined by monitoring the absorbance at 340 nm with time.
(§4) All mutants have C334A. Coupling efficiency is the percentage of NADH consumed which was utilised for product formation, i.e. a percentage of the theoretical maximum efficiency. The product formation rates are given in (nmol product) (nmol P450cam)^−1(min)^−1. The relative amount of product formed in each case is shown. 1,3- and 1,4-dichlorobenzene, 1,2,3- and 1,3,5-trichlorobenzene, 1,2,4,5- and 1,2,3,5-tetrachlorobenzene, and […] and 2,2′,4,5,5′-pentachlorobiphenyl were also found to be oxidised.

First: B1
Second: B2
The “Product formation rate” value of the first is higher: 3 min⁻¹ for the first, 1 min⁻¹ for the second.

Compared with B3, B4 is lower in “Product formation rate” value: 8 min⁻¹ for the first, 7 min⁻¹ for the second.

Compared with B5, B6 is higher in “Product formation rate” value: 22 min⁻¹ for the first, 33 min⁻¹ for the second.

same assay, conditions: percentage of NADH consumed utilised for product formation; trichlorophenol products

Compared with B2, B6 is higher in “Coupling Efficiency (%)” value: 3% for the first, 14% for the second.

same assay, conditions: substrate not named; all mutants have C334A

Compared with B2, B6 is higher in “2,3,6-Trichlorophenol (relative amount of product formed)” value: 54 for the first, 77 for the second.

Going from B2 to B6, the “3,4,6-Trichlorophenol (relative amount of product formed)” value falls from 46 to 23.

tested on: P450cam; test: Oxidation of further halo aromatic substrates by P450cam enzymes; type: biochemical, Pseudomonas putida; settings: substrate of P450cam enzymes
Method: as §1, §2, §3, §4

In the case of `Clc1cc(Cl)c(Cl)c(Cl)c1` [1,2,3,5-tetrachlorobenzene], the “found to be oxidised” value is reported as “oxidised”.
With `Clc1cccc(Cl)c1Cl` [1,2,3-trichlorobenzene] the “found to be oxidised” value was “oxidised”.
With `Clc1cc(Cl)c(Cl)cc1Cl` [1,2,4,5-tetrachlorobenzene] the “found to be oxidised” value was “oxidised”.
With `Clc1cc(Cl)cc(Cl)c1` [1,3,5-trichlorobenzene] the “found to be oxidised” value was “oxidised”.
For `Clc1cccc(Cl)c1` [1,3-dichlorobenzene], the “found to be oxidised” value was “oxidised”.
In the case of `Clc1ccc(Cl)cc1` [1,4-dichlorobenzene], the “found to be oxidised” value is reported as “oxidised”.
With `Clc1ccc(Cl)c(-c2cc(Cl)c(Cl)cc2Cl)c1` [2,2′,4,5,5′-pentachlorobiphenyl] the “found to be oxidised” value was “oxidised”.
For `Clc1c(Cl)c(Cl)c(-c2ccccc2)c(Cl)c1Cl` [2,3,4,5,6-pentachlorobiphenyl], the “found to be oxidised” value was “oxidised”.

tested on: not listed separately; test: Oxidation of halo aromatic compounds by P450cam mutants in vitro, dichlorophenol products; type: biochemical; settings: (nmol product)(nmol P450cam)^−1(min)^−1; dichlorophenol products
Method: as §1, §2, §3, §4

First: B7
Second: B3
The “Product formation rate” value of the first is higher: 20 min⁻¹ for the first, 5 min⁻¹ for the second.

Compared with B8, B9 is higher in “Product formation rate” value: 0.5 min⁻¹ for the first, 0.7 min⁻¹ for the second.

Going from B5 to B6, the “Product formation rate” value rises from 8 min⁻¹ to 19 min⁻¹.

same assay, conditions: percentage of NADH consumed utilised for product formation; dichlorophenol products

B8 and B9 are the same in “Coupling Efficiency (%)” value: 2% for the first, 2% for the second.

For B6, the “Coupling Efficiency (%)” value was 6%.

same assay, conditions: substrate not named; all mutants have C334A

First: B8
Second: B9
The “2,3-Dichlorophenol (relative amount of product formed)” value of the first is higher: 95 for the first, 90 for the second.

In the case of B6, the “2,3-Dichlorophenol (relative amount of product formed)” value is reported as 94.

Compared with B8, B9 is higher in “3,4-Dichlorophenol (relative amount of product formed)” value: 5 for the first, 10 for the second.

With B6 the “3,4-Dichlorophenol (relative amount of product formed)” value was 6.
